Reference: patent US20130203116, “EXPRESSION AND PURIFICATION OF FUSION PROTEIN WITH MULTIPLE MBP TAGS” (The Regents of the University of California 1111 Franklin …, published 2013)

Assays:
[1] = molecular target: T1, BRCA2 (2XMBP-BRCA2, full length) (Homo sapiens, UniProt P51587 P51587:1-3418); experiment: EMSA; strongly preferred over dsDNA; 1 mM MgCl2, 2 mM CaCl2, 2 mM ATP, 37 C; conditions: tags: N-terminal 2xMBP with PreScission site, expressed in human 293T cells, amylose + HiTrap Q
[2] = molecular target: T1, BRCA2 (2XMBP-BRCA2, full length); experiment: EMSA; strongly preferred over dsDNA; slight preference over ssDNA at high salt (0.5-1 M NaCl); 1 mM MgCl2, 2 mM CaCl2, 2 mM ATP, 37 C; conditions: tags: N-terminal 2xMBP with PreScission site; expressed in human 293T cells, amylose + HiTrap Q; label: 5'-32P on 167-mer (EMSA); 42 bp duplex with 125 nt 3' ssDNA overhang

T1 sequence (P51587 whole entry, one chain of several): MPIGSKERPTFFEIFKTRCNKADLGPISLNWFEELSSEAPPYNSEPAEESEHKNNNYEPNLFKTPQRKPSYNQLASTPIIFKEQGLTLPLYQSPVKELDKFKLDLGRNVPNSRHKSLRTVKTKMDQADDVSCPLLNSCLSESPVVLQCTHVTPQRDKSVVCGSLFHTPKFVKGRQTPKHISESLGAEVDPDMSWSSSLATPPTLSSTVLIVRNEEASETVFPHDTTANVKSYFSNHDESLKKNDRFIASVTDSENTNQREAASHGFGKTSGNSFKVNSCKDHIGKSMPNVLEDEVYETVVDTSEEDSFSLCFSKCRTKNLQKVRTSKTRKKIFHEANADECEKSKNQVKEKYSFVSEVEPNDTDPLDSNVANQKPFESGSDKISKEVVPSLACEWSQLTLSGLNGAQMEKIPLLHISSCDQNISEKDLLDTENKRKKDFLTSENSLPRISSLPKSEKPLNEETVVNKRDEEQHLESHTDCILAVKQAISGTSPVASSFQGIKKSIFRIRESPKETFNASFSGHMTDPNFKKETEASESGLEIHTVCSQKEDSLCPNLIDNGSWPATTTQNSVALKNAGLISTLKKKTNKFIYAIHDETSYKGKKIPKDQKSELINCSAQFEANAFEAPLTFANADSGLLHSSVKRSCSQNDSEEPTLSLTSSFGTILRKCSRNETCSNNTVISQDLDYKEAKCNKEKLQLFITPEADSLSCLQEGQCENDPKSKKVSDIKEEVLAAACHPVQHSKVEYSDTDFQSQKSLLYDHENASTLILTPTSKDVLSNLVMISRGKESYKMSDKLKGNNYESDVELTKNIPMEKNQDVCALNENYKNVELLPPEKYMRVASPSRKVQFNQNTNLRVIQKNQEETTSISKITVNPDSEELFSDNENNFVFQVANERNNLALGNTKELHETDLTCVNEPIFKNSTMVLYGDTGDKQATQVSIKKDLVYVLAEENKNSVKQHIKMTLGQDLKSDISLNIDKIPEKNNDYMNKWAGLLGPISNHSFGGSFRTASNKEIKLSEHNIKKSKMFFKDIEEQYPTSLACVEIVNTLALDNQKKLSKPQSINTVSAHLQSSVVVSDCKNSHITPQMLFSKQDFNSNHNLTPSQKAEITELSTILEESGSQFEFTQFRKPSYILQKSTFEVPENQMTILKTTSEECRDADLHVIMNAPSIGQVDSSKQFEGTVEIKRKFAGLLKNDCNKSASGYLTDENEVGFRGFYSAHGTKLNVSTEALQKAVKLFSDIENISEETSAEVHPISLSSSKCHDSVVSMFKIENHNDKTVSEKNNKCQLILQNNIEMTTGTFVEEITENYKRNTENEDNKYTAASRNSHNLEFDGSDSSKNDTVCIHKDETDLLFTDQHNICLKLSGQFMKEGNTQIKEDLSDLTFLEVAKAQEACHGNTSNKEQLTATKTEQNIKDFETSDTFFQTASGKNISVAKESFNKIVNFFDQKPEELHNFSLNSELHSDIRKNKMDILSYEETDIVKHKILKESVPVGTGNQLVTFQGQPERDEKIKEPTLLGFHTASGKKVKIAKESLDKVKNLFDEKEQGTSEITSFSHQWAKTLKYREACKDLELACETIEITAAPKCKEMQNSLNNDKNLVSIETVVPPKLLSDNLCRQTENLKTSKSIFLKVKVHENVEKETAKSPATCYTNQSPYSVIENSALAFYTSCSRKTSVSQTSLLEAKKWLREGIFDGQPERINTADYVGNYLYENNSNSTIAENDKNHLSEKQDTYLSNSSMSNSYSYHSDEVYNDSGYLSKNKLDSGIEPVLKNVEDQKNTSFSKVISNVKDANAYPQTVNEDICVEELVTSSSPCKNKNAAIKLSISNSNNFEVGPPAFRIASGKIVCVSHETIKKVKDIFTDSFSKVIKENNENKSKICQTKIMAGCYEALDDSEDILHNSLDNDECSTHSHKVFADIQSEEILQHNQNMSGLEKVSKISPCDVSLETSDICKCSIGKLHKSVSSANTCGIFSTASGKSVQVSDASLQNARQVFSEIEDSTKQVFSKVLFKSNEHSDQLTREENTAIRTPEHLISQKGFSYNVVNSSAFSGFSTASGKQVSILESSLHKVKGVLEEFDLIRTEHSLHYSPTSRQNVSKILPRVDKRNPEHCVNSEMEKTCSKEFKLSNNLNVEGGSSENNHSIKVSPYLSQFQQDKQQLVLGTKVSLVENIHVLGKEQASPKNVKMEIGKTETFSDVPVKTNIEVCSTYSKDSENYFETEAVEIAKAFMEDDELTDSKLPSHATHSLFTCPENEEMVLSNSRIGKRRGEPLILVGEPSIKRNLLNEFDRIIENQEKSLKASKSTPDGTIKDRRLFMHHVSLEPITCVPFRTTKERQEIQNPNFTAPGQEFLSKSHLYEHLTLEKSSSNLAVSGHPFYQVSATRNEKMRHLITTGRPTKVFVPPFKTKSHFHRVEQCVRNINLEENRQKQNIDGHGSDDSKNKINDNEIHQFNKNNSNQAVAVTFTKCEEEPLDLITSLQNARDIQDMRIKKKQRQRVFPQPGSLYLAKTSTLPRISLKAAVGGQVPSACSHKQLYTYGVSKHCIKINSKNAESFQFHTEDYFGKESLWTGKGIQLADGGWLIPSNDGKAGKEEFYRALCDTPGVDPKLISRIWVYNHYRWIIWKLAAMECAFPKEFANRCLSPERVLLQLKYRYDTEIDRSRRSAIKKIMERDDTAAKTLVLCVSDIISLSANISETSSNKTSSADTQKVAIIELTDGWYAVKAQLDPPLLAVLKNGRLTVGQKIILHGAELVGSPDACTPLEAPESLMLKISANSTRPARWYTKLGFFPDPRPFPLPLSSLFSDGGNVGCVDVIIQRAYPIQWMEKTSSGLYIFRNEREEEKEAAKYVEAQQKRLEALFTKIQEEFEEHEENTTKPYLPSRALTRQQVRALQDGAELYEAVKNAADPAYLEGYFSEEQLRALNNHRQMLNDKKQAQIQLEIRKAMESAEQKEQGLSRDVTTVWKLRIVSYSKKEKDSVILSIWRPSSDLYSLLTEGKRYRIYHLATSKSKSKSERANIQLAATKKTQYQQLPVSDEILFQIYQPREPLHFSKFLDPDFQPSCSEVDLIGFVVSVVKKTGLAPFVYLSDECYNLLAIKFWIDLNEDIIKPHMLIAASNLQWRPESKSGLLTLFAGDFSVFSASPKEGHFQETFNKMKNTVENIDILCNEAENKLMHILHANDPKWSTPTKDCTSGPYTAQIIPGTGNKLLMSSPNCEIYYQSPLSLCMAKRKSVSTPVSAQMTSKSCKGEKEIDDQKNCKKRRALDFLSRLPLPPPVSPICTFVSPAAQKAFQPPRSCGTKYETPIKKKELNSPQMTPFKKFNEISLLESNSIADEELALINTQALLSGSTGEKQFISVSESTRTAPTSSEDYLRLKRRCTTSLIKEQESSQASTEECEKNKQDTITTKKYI

B1: RJ-167-mer ssDNA (ssDNA)
DNA: CTGCTTTATCAAGATAATTTTTCGACTCATCAGAAATATCCGTTTCCTATATTTATTCCTATTATGTTTTATTCATTTACTTATTCTTTATGTTCATTTTTTATATCCTTTACTTTATTTTCTCTGTTTATTCATTTACTTATTTTGTATTATCCTTATCTTATTTA
Question: Does B1 bind ([1]; label: 5'-32P (EMSA))?
Answer: binds

B2: 3' tailed DNA (RJ-167-mer/RJ-PHIX-42-1) (mixed)
DNA 1: CTGCTTTATCAAGATAATTTTTCGACTCATCAGAAATATCCGTTTCCTATATTTATTCCTATTATGTTTTATTCATTTACTTATTCTTTATGTTCATTTTTTATATCCTTTACTTTATTTTCTCTGTTTATTCATTTACTTATTTTGTATTATCCTTATCTTATTTA
DNA 2: CGGATATTTCTGATGAGTCGAAAAATTATCTTGATAAAGCAG
Question: Does B2 bind [2]?
Answer: binds

B3: 5' tailed DNA (RJ-5'TAIL-167-mer/RJ-PHIX-42-1) (mixed)
DNA 1: ATTTATTCTATTCCCTTTATTTTCTCTGTTTATTCATTTACTTATTTTGTATTAATTTCCTATATTTTTTACTTGTATTTCTTATTCATTTACTTATTTTGTATTATCCTTATTTATATCCTTTCTGCTTTATCAAGATAATTTTTCGACTCATCAGAAATATCCG
DNA 2: CGGATATTTCTGATGAGTCGAAAAATTATCTTGATAAAGCAG
Question: Does B3 bind ([1]; label: 5'-32P on 167-mer (EMSA), 42 bp duplex with 5' ssDNA overhang)?
Answer: binds
